This note sets out measurements from paper doi:10.1101/2024.06.06.597810 (bioRxiv, 2024).

This test deals with T1, Biotin-labeled BatCoV-BtkY72 stem helix peptide (Bat SARS-related coronavirus BtKY72 …, UniProt A0A3Q8AKM0, biotin (position not given)).
T1 construct: source: synthetic peptide, bought: GenScript
The test can be described thus: BLI. As to conditions: both partners purified.

B1: S2P6 UCA VH M48I/S56H double mutant Fab (Fab, V domains shown)
VH: QVQLVQSGAEVKKPGASVKVSCKASGYTFTSYYMHWVRQAPGQGLEWIGIINPSGGHTSYAQKFQGRVTMTRDTSTSTVYMELSSLRSEDTAVYYCARGSPKGAFDYWGQGTLVTVSS
VL: not shown
notes: source: Expi293F, co-transfected, purified (IgG-CH1-XL beads)
For the molecule B1, the binding result is reported as “binds”.

B2: S2P6 UCA VH Y32Q/M48I/S56H triple mutant Fab (Fab, V domains shown)
VH: QVQLVQSGAEVKKPGASVKVSCKASGYTFTSQYMHWVRQAPGQGLEWIGIINPSGGHTSYAQKFQGRVTMTRDTSTSTVYMELSSLRSEDTAVYYCARGSPKGAFDYWGQGTLVTVSS
VL: not shown
notes: as for B1
As to B2, the binding result was “binds”.
